Our source for the Kd values is patent US20160168251A1 (MorphoSys, published 2016).

Assay [1] deals with T1, rat NPRA on HEK cells bound to ANP (rat, UniProt P18910 29-1057; P01161 123-150).
T1 construct: whole, on cells;mature; also called HEK293T-GCA
T1 sequence (looked up): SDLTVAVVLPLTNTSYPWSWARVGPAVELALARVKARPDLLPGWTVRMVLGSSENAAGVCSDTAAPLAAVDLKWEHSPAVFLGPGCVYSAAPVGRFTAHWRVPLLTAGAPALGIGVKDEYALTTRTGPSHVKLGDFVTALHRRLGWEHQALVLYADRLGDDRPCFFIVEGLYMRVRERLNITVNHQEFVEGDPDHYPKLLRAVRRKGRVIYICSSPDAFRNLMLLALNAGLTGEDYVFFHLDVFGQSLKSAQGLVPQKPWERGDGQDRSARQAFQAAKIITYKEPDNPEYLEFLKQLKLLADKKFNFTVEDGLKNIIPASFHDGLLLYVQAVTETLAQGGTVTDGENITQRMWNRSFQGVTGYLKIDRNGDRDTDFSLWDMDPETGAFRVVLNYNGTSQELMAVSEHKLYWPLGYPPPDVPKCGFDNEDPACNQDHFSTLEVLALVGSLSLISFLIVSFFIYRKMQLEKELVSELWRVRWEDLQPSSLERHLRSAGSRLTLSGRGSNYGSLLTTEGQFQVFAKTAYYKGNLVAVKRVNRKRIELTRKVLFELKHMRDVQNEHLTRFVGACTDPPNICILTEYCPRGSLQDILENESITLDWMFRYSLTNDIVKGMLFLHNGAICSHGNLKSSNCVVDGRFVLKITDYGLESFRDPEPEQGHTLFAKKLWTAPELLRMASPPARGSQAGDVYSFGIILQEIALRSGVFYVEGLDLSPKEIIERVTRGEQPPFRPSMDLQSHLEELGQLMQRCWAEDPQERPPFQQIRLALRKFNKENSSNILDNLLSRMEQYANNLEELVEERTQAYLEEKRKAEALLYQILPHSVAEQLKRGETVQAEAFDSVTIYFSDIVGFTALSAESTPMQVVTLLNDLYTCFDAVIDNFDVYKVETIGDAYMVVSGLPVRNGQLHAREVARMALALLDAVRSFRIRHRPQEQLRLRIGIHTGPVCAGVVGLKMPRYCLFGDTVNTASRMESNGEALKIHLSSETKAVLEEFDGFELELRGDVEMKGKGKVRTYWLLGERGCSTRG
T1 sequence (peptide, looked up): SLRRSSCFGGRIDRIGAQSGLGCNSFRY
As to the kind of experiment: KinExA whole cell binding (Kd,app), HEK cells with rat NPRA, ANP bound. On the technique in general: A kinetic exclusion assay measures how much of one partner remains free in solution.

The target of assay [2] is T2, rhesus monkey NPRA on HEK cells bound to ANP (rhesus monkey, UniProt F7HE88 33-1061; P01160 124-151, chain 2: ANP is cyclic, its 17-residue ring closed by a disulfide bond between its two cysteines).
T2 construct: also called Rhesus NPRA
T2 sequence: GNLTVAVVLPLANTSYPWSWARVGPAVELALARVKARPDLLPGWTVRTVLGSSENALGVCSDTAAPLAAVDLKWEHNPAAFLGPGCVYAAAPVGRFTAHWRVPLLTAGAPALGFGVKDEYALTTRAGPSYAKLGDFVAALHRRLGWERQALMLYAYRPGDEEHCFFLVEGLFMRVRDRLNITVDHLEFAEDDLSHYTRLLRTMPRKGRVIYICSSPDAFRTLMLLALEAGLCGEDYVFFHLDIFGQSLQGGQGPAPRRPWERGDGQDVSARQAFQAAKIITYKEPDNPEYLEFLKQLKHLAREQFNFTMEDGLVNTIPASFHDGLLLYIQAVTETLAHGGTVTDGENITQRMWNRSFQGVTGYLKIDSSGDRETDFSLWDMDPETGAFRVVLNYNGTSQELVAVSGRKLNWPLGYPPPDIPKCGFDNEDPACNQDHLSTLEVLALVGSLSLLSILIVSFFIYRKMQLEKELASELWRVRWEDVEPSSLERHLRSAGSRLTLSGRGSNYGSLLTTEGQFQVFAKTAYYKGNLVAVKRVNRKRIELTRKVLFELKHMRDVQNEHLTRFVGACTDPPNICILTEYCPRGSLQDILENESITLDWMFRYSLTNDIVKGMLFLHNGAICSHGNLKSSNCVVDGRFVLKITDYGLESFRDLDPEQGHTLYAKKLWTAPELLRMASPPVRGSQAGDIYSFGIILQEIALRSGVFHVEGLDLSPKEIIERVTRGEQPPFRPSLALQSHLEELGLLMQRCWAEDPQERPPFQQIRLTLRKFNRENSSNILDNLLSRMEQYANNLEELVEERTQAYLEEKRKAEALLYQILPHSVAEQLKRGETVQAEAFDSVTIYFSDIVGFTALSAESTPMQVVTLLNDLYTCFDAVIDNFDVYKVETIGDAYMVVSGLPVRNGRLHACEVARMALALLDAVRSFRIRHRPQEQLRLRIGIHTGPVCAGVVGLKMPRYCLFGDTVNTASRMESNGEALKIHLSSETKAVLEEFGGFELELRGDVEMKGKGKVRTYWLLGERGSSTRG
T2 sequence (peptide): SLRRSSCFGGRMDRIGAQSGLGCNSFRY
As to the kind of experiment: KinExA whole cell binding (Kd,app), HEK cells with rhesus NPRA, ANP bound.
Protocol: Initial species cross-reactivity studies are performed using HEK cell lines overexpressing rat, canine and rhesus monkey NPRA. […] These apparent Kd values are obtained by globally fitting the data for two antibody concentrations.

B1: 5591 IgG4_Pro (antibody, V domains shown)
VH: QVQLQQSGPGLVKPSQTLSLTCAISGDSVSSRSASWSWIRQSPGRGLEWLGRTYYRSHWYYEYAQSVKSRITINPDTSKNQFSLQLNSVTPEDTAVYYCARMDVPSFRYFDVWGQGTLVTVSS
VL: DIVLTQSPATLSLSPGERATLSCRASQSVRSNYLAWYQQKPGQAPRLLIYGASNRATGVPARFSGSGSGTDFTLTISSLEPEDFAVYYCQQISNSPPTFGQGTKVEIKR
Regarding B1, the Kd in assay [1] is 0.013 nM; in assay [2], 0.266 nM.
